{"source": "the supplement of paper PMC9112550", "about": "“Optimization of the antimicrobial peptide Bac7 by deep mutational scanning” (BMC Biology, 2022);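 also: peptides expressed intracellularly from a pBAD plasmid library in pooled LB shake-flask culture, induced with 0.3% L-arabinose, DNA abundance read by NGS, three biological replicates, DESeq2 with apeglm shrinkage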", "data": [{"system": "Escherichia coli TOP10", "test": "shrunken log2 fold change of peptide-encoding DNA abundance (4.5 h post-induction vs induction); higher = less antimicrobial activity (less host growth inhibition)", "details": "time post-induction: 4.5 h; library: site-saturation at positions 5, 18, 19, 20", "values": [{"sequence": "RRIRLRPPRLPRPRPRPLEAPRP", "shrunken log2 fold change": 0.41}, {"sequence": "RRIRARPPRLPRPRPRPYHLPRP", "shrunken log2 fold change": -0.0107}, {"sequence": "RRIRFRPPRLPRPRPRPLDVPRP", "shrunken log2 fold change": -0.153}, {"sequence": "RRIRWRPPRLPRPRPRPHDCPRP", "shrunken log2 fold change": -0.00141}, {"sequence": "RRIRHRPPRLPRPRPRPGDRPRP", "shrunken log2 fold change": 2.17}, {"sequence": "RRIRMRPPRLPRPRPRPTALPRP", "shrunken log2 fold change": 0.33}, {"sequence": "RRIRPRPPRLPRPRPRPAMDPRP", "shrunken log2 fold change": 0.0161}, {"sequence": "RRIRARPPRLPRPRPRPKLTPRP", "shrunken log2 fold change": 0.167}, {"sequence": "RRIRCRPPRLPRPRPRPCWRPRP", "shrunken log2 fold change": 0.252}, {"sequence": "RRIRQRPPRLPRPRPRPPCRPRP", "shrunken log2 fold change": -0.0419}, {"sequence": "RRIRHRPPRLPRPRPRPSAHPRP", "shrunken log2 fold change": -0.139}, {"sequence": "RRIRLRPPRLPRPRPRPQYWPRP", "shrunken log2 fold change": -0.275}, {"sequence": "RRIRGRPPRLPRPRPRPMGLPRP", "shrunken log2 fold change": -0.0139}, {"sequence": "RRIRMRPPRLPRPRPRPQTGPRP", "shrunken log2 fold change": -0.0549}, {"sequence": "RRIRARPPRLPRPRPRPYCKPRP", "shrunken log2 fold change": -0.376}, {"sequence": "RRIRQRPPRLPRPRPRPMTYPRP", "shrunken log2 fold change": -0.0223}, {"sequence": "RRIRERPPRLPRPRPRPDMCPRP", "shrunken log2 fold change": 0.00902}, {"sequence": "RRIRMRPPRLPRPRPRPMPTPRP", "shrunken log2 fold change": 2.8}, {"sequence": "RRIRPRPPRLPRPRPRPAKIPRP", "shrunken log2 fold change": 0.0125}, {"sequence": "RRIRLRPPRLPRPRPRPNKWPRP", "shrunken log2 fold change": -0.066}, {"sequence": "RRIRNRPPRLPRPRPRPMTDPRP", "shrunken log2 fold change": -0.088}, {"sequence": "RRIRKRPPRLPRPRPRPMPDPRP", "shrunken log2 fold change": 0.525}, {"sequence": "RRIRSRPPRLPRPRPRPGMEPRP", "shrunken log2 fold change": 0.148}, {"sequence": "RRIRSRPPRLPRPRPRPNEQPRP", "shrunken log2 fold change": 0.0903}, {"sequence": "RRIRFRPPRLPRPRPRPKAGPRP", "shrunken log2 fold change": 0.307}, {"sequence": "RRIRERPPRLPRPRPRPWCIPRP", "shrunken log2 fold change": -1.84}, {"sequence": "RRIRSRPPRLPRPRPRPKKRPRP", "shrunken log2 fold change": 0.716}, {"sequence": "RRIRDRPPRLPRPRPRPLISPRP", "shrunken log2 fold change": 0.116}, {"sequence": "RRIRMRPPRLPRPRPRPGHFPRP", "shrunken log2 fold change": 0.274}, {"sequence": "RRIRHRPPRLPRPRPRPCWKPRP", "shrunken log2 fold change": -0.119}, {"sequence": "RRIRLRPPRLPRPRPRPWLWPRP", "shrunken log2 fold change": -0.106}, {"sequence": "RRIRQRPPRLPRPRPRPDVPPRP", "shrunken log2 fold change": 0.0169}, {"sequence": "RRIRTRPPRLPRPRPRPACTPRP", "shrunken log2 fold change": 0.212}, {"sequence": "RRIRDRPPRLPRPRPRPNNWPRP", "shrunken log2 fold change": -0.11}, {"sequence": "RRIRFRPPRLPRPRPRPDDYPRP", "shrunken log2 fold change": -0.0193}, {"sequence": "RRIRYRPPRLPRPRPRPKKHPRP", "shrunken log2 fold change": -0.646}, {"sequence": "RRIRVRPPRLPRPRPRPFWTPRP", "shrunken log2 fold change": -0.427}, {"sequence": "RRIRIRPPRLPRPRPRPIIFPRP", "shrunken log2 fold change": -0.667}, {"sequence": "RRIRMRPPRLPRPRPRPIVGPRP", "shrunken log2 fold change": 0.108}, {"sequence": "RRIRQRPPRLPRPRPRPVRQPRP", "shrunken log2 fold change": 0.0135}, {"sequence": "RRIRYRPPRLPRPRPRPREKPRP", "shrunken log2 fold change": 0.124}, {"sequence": "RRIRDRPPRLPRPRPRPPQVPRP", "shrunken log2 fold change": 0.272}, {"sequence": "RRIRDRPPRLPRPRPRPLWGPRP", "shrunken log2 fold change": 0.294}, {"sequence": "RRIRSRPPRLPRPRPRPYRRPRP", "shrunken log2 fold change": -0.0841}, {"sequence": "RRIRCRPPRLPRPRPRPIPAPRP", "shrunken log2 fold change": 0.0747}, {"sequence": "RRIRIRPPRLPRPRPRPPQFPRP", "shrunken log2 fold change": -0.195}, {"sequence": "RRIRHRPPRLPRPRPRPMFEPRP", "shrunken log2 fold change": -0.239}, {"sequence": "RRIRLRPPRLPRPRPRPCASPRP", "shrunken log2 fold change": 0.259}, {"sequence": "RRIRYRPPRLPRPRPRPANLPRP", "shrunken log2 fold change": -1.19}, {"sequence": "RRIRIRPPRLPRPRPRPDSQPRP", "shrunken log2 fold change": -0.0342}, {"sequence": "RRIRLRPPRLPRPRPRPQLSPRP", "shrunken log2 fold change": -0.0956}, {"sequence": "RRIRKRPPRLPRPRPRPELKPRP", "shrunken log2 fold change": 0.978}, {"sequence": "RRIRERPPRLPRPRPRPFYRPRP", "shrunken log2 fold change": -0.111}, {"sequence": "RRIRQRPPRLPRPRPRPRQRPRP", "shrunken log2 fold change": 0.245}, {"sequence": "RRIRTRPPRLPRPRPRPNHKPRP", "shrunken log2 fold change": -0.443}, {"sequence": "RRIRMRPPRLPRPRPRPALFPRP", "shrunken log2 fold change": 0.356}, {"sequence": "RRIRKRPPRLPRPRPRPRQHPRP", "shrunken log2 fold change": 0.499}, {"sequence": "RRIRDRPPRLPRPRPRPRIQPRP", "shrunken log2 fold change": -0.0934}, {"sequence": "RRIRWRPPRLPRPRPRPPEDPRP", "shrunken log2 fold change": 0.235}, {"sequence": "RRIRNRPPRLPRPRPRPFKAPRP", "shrunken log2 fold change": 0.0407}]}]}
